This data set addresses cell-surface nucleolin (NCL) (UniProt P19338). The data set is described as follows: competition. Conditions: MST: 300 nM FAM-aptamer, NCL 1.95 nM-4 uM, binding buffer not specified, 25 C, 15 min; AP1-AP6 and Mut folded in 100 mM KCl, 10 mM K3PO4 pH 7.0; AS1411 in …; scale: % decrease of anti-NCL fluorescence at 4 uM.

Chain of cell-surface nucleolin (NCL) (P19338 whole entry): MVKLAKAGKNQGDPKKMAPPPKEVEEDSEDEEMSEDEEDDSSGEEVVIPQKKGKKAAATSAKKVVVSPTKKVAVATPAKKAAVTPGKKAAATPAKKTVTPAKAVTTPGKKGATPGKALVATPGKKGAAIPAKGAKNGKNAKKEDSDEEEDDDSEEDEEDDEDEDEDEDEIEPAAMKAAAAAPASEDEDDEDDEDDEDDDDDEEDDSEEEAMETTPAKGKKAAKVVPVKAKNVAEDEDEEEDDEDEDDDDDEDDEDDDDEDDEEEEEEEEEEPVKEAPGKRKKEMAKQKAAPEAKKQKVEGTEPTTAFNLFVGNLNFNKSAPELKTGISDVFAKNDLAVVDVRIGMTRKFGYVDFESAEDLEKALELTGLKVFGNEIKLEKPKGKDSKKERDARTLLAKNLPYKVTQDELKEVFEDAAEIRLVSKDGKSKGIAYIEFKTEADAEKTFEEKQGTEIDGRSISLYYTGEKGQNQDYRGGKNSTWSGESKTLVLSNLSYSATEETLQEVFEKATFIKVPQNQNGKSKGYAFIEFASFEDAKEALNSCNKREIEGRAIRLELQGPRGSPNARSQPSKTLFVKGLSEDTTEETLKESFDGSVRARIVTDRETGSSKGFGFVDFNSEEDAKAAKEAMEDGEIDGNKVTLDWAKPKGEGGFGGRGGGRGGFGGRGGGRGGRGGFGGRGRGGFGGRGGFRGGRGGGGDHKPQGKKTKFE

As for GUUAGGGUUUGGGAUUG [AP1], the binding signal worked out at 50.

Source of the values: publication PMC12650828.
